What all share (assay): cryo-EM structure
Data set [1] addresses T. maritima encapsulin shell protein (wild type) (T. maritima) (UniProt Q9WZP2).
The target is the same in data set [2]. This is another data set of the same source.
Data set [3] deals with the molecule itself.

The record followed here is publication doi:10.1101/2021.04.26.441214 (bioRxiv, 2021).

What is called stoichiometry N is a count of units in the complex or per binding partner.

T. maritima encapsulin shell protein (wild type) (T. maritima), sequence (Q9WZP2 whole entry): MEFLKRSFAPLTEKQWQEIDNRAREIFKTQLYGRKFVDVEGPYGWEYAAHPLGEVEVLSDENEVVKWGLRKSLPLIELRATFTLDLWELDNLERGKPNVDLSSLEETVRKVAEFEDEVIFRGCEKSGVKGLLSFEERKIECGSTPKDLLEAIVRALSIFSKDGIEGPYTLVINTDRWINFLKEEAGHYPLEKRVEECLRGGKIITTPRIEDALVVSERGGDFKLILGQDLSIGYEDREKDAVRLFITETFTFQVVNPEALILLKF

Regarding “T. maritima encapsulin shell protein (wild type) (from UniProt Q9WZP2 1-265) (natural protein)”, the stoichiometry N (subunits per shell) in data set [1] was determined as 60.

B1: T. maritima ferritin-like protein (FLP) cargo (natural protein, UniProt Q9WZP3 1-114, looked up)
chain: MADQYHEPVSELTGKDRDFVRALNSLKEEIEAVAWYHQRVVTTKDETVRKILEHNRDEEMEHAAMLLEWLRRNMPGWDEALRTYLFTDKPITEIEEETSGGSENTGGDLGIRKL
In data set [2], B1 yielded an FLPs per shell (2D class averages) (FLPs per shell) of 2. Further, the “stoichiometry N” value in data set [3] stood at 10 subunits.
